The supplement of paper PMC12764529
± gives the half width of the 95% confidence interval.

assay: folding stability dG unfold (combined trypsin and chymotrypsin); higher = more stable
In short: (§1)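 Unfolding free energy was derived, per protease or combined, by relating Bayesian-fitted K50 values from sequencing counts to a sequence-predicted unfolded-state K50 and a shared folded-state K50. The underlying digests exposed cysteine-free mini-proteins under 80 residues, in a PA-tagged cDNA display construct, to trypsin and chymotrypsin at 11 threefold-diluted concentrations and to a no-protease condition. A filter kept only designs with AlphaFold2 dimer inter-PAE above 15.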

Sequence | folding stability dG unfold [kcal/mol]
SAGMITPEELEERIRKLAEETGGPRYRVKVRGPDGPLYEFEVGFTPEEIERLAKELGVDIVEVEPIPESAGG [r19_50_TrMRF] | 3 ± 0.11
MIIIPNATPEEVKKIILDAAKKGKEIEILIEVDPNLGPKVIKALKDLPYVKKVEPLPDGSIKVYIDKKNLKS [r1_324_TrMRF] | 2.89 ± 0.093
SAGGSAGGSAGGKTVLISLEDLEALKKLPPGAKVKIEPIKTPEGTVYRVNVETGKIEKVPSAGGSAGGSAGG [r7_765_TrROS_Hall] | 0.0992 ± 0.22
SAGGSAGGSAGGSMSVSSVGSSSGAGMIVKTTYFPGSGGTTVVLIEPASGVVLATTPVPGSAGGSAGGSAGG [r7_154_JUSTAS] | 0.374 ± 0.13
SAGGARFEFTTPEGDRVTVELETTADELRVRVTVHRENEPFTLEATFPLPPPAPPAVPADVPGPSLLLSAGG [r13_691_TrMRF] | 1.91 ± 0.21
SAGGSAGGSPLVKTTTSVDPVGPDRTLTTSTATLPSGGTTVTTTTFLTSPDGTVPVATTTTPSASAGGSAGG [r6_471_JUSTAS] | -0.11 ± 0.21
SAGGSAGGSAKKKYVFTIPVKPNTFNPEKLKKFIEKAFPEFKNYEIKVEVLPDGTAKVYIEASAGGSAGGSA [r18_65_TrMRF] | 3.89 ± 0.24
SAGGSAGGSAGGALEEKAKEIIEELKKKGIKVKEVKTSPNEITITFEDGSTKKIPIINGSAGGSAGGSAGGS [r10_169_JUSTAS] | 2.66 ± 0.1
SAGGKPVRILVIAGKGIRPLEIPVDEDKTVEAEFKFGDHTIRIRVSPKEKKIEVEAPSNFKIIILEPSAGGS [r16_761_TrMRF] | 2.98 ± 0.12
SAGGLKELLEALKEGNLEEALEALKKLGIEEVKIEIKPVVRVVITVEVPKEKVKVKVEVRVFLPEEELSAGG [r13_359_TrROS_Hall] | 1.71 ± 0.33
SAGGSAAKITEVEVEELEDGEVLIRVKVKPEDIDALLELAKKLPEENIELVEKREDGYYVLRIKRPSAGGSA [r15_386_TrROS_Hall] | 1.67 ± 0.15
SAGGMTLNITVEIPGLGTTITKTFSANPSDYEKIARETEEENPEYKLTSVKVTYSPNSITIDATVELVSAGG [r13_196_JUSTAS] | 2.04 ± 0.21
SAGGSADVVLVEVRPPVLDPEGRPLLTLVLRLPDGGSRTLVVELSDLAGALANLPPNVRVDEIRPLSAGGSA [r15_339_TrMRF] | 2.01 ± 0.067
SAGGSAGGSEVKTKVTLKREDPGSASTSTVDLPKEEAEKLIKEGKEIKLPSGKKASFTKVVPESAGGSAGGS [r12_432_JUSTAS] | -0.148 ± 0.2
SAGGSAGGSAGVPEGEEYLFTVKVTLTFEPVTVKDENGEEHEIDEVTITVTVTVLVKAEDSAGGSAGGSAGG [r11_907_TrROS_Hall] | 2.93 ± 0.24
SAGGSLFEKLNVKSVEVTEVKTYTLPPLPLTVEVPTVKVTLPDGTVIEFTVIKTYDPEDPTPTVTLGSAGGS [r8_422_JUSTAS] | 1.08 ± 0.07
SAGGSAGGSAGGSKKKPPKKITLVVWNEETGELTKVEFDAETKEVKVEKVPIKPGDILLSAGGSAGGSAGGS [r4_409_TrROS_Hall] | 0.988 ± 0.21

assay: folding stability dG unfold from chymotrypsin proteolysis; higher = more stable
In short: as §1

Sequence | folding stability dG unfold [kcal/mol]
SAGMITPEELEERIRKLAEETGGPRYRVKVRGPDGPLYEFEVGFTPEEIERLAKELGVDIVEVEPIPESAGG [r19_50_TrMRF] | 3.07 ± 0.13
MIIIPNATPEEVKKIILDAAKKGKEIEILIEVDPNLGPKVIKALKDLPYVKKVEPLPDGSIKVYIDKKNLKS [r1_324_TrMRF] | 3.24 ± 0.048
SAGGSAGGSAGGKTVLISLEDLEALKKLPPGAKVKIEPIKTPEGTVYRVNVETGKIEKVPSAGGSAGGSAGG [r7_765_TrROS_Hall] | 0.175 ± 0.26
SAGGSAGGSAGGSMSVSSVGSSSGAGMIVKTTYFPGSGGTTVVLIEPASGVVLATTPVPGSAGGSAGGSAGG [r7_154_JUSTAS] | 0.272 ± 0.079
SAGGARFEFTTPEGDRVTVELETTADELRVRVTVHRENEPFTLEATFPLPPPAPPAVPADVPGPSLLLSAGG [r13_691_TrMRF] | 1.62 ± 0.089
SAGGSAGGSPLVKTTTSVDPVGPDRTLTTSTATLPSGGTTVTTTTFLTSPDGTVPVATTTTPSASAGGSAGG [r6_471_JUSTAS] | 0.24 ± 0.14
SAGGSAGGSAKKKYVFTIPVKPNTFNPEKLKKFIEKAFPEFKNYEIKVEVLPDGTAKVYIEASAGGSAGGSA [r18_65_TrMRF] | 4.4 ± 0.11
SAGGSAGGSAGGALEEKAKEIIEELKKKGIKVKEVKTSPNEITITFEDGSTKKIPIINGSAGGSAGGSAGGS [r10_169_JUSTAS] | 2.54 ± 0.16
SAGGKPVRILVIAGKGIRPLEIPVDEDKTVEAEFKFGDHTIRIRVSPKEKKIEVEAPSNFKIIILEPSAGGS [r16_761_TrMRF] | 3.14 ± 0.042
SAGGLKELLEALKEGNLEEALEALKKLGIEEVKIEIKPVVRVVITVEVPKEKVKVKVEVRVFLPEEELSAGG [r13_359_TrROS_Hall] | 1.24 ± 0.23
SAGGSAAKITEVEVEELEDGEVLIRVKVKPEDIDALLELAKKLPEENIELVEKREDGYYVLRIKRPSAGGSA [r15_386_TrROS_Hall] | 1.87 ± 0.16
SAGGMTLNITVEIPGLGTTITKTFSANPSDYEKIARETEEENPEYKLTSVKVTYSPNSITIDATVELVSAGG [r13_196_JUSTAS] | 2.38 ± 0.057
SAGGSADVVLVEVRPPVLDPEGRPLLTLVLRLPDGGSRTLVVELSDLAGALANLPPNVRVDEIRPLSAGGSA [r15_339_TrMRF] | 2.31 ± 0.035
SAGGSAGGSEVKTKVTLKREDPGSASTSTVDLPKEEAEKLIKEGKEIKLPSGKKASFTKVVPESAGGSAGGS [r12_432_JUSTAS] | -0.18 ± 0.24
SAGGSAGGSAGVPEGEEYLFTVKVTLTFEPVTVKDENGEEHEIDEVTITVTVTVLVKAEDSAGGSAGGSAGG [r11_907_TrROS_Hall] | 3.24 ± 0.12
SAGGSLFEKLNVKSVEVTEVKTYTLPPLPLTVEVPTVKVTLPDGTVIEFTVIKTYDPEDPTPTVTLGSAGGS [r8_422_JUSTAS] | 1.31 ± 0.12
SAGGSAGGSAGGSKKKPPKKITLVVWNEETGELTKVEFDAETKEVKVEKVPIKPGDILLSAGGSAGGSAGGS [r4_409_TrROS_Hall] | 0.946 ± 0.062

assay: folding stability dG unfold from trypsin proteolysis; higher = more stable
In short: as §1

Sequence | folding stability dG unfold [kcal/mol]
SAGMITPEELEERIRKLAEETGGPRYRVKVRGPDGPLYEFEVGFTPEEIERLAKELGVDIVEVEPIPESAGG [r19_50_TrMRF] | 2.97 ± 0.085
MIIIPNATPEEVKKIILDAAKKGKEIEILIEVDPNLGPKVIKALKDLPYVKKVEPLPDGSIKVYIDKKNLKS [r1_324_TrMRF] | 1.71 ± 0.038
SAGGSAGGSAGGKTVLISLEDLEALKKLPPGAKVKIEPIKTPEGTVYRVNVETGKIEKVPSAGGSAGGSAGG [r7_765_TrROS_Hall] | -0.24 ± 0.21
SAGGSAGGSAGGSMSVSSVGSSSGAGMIVKTTYFPGSGGTTVVLIEPASGVVLATTPVPGSAGGSAGGSAGG [r7_154_JUSTAS] | 0.493 ± 0.04
SAGGARFEFTTPEGDRVTVELETTADELRVRVTVHRENEPFTLEATFPLPPPAPPAVPADVPGPSLLLSAGG [r13_691_TrMRF] | 2.06 ± 0.15
SAGGSAGGSPLVKTTTSVDPVGPDRTLTTSTATLPSGGTTVTTTTFLTSPDGTVPVATTTTPSASAGGSAGG [r6_471_JUSTAS] | -0.461 ± 0.15
SAGGSAGGSAKKKYVFTIPVKPNTFNPEKLKKFIEKAFPEFKNYEIKVEVLPDGTAKVYIEASAGGSAGGSA [r18_65_TrMRF] | 2.69 ± 0.12
SAGGSAGGSAGGALEEKAKEIIEELKKKGIKVKEVKTSPNEITITFEDGSTKKIPIINGSAGGSAGGSAGGS [r10_169_JUSTAS] | 2.55 ± 0.12
SAGGKPVRILVIAGKGIRPLEIPVDEDKTVEAEFKFGDHTIRIRVSPKEKKIEVEAPSNFKIIILEPSAGGS [r16_761_TrMRF] | 2.96 ± 0.092
SAGGLKELLEALKEGNLEEALEALKKLGIEEVKIEIKPVVRVVITVEVPKEKVKVKVEVRVFLPEEELSAGG [r13_359_TrROS_Hall] | 1.94 ± 0.13
SAGGSAAKITEVEVEELEDGEVLIRVKVKPEDIDALLELAKKLPEENIELVEKREDGYYVLRIKRPSAGGSA [r15_386_TrROS_Hall] | 1.53 ± 0.043
SAGGMTLNITVEIPGLGTTITKTFSANPSDYEKIARETEEENPEYKLTSVKVTYSPNSITIDATVELVSAGG [r13_196_JUSTAS] | 1.38 ± 0.17
SAGGSADVVLVEVRPPVLDPEGRPLLTLVLRLPDGGSRTLVVELSDLAGALANLPPNVRVDEIRPLSAGGSA [r15_339_TrMRF] | 0.443 ± 0.093
SAGGSAGGSEVKTKVTLKREDPGSASTSTVDLPKEEAEKLIKEGKEIKLPSGKKASFTKVVPESAGGSAGGS [r12_432_JUSTAS] | -0.195 ± 0.11
SAGGSAGGSAGVPEGEEYLFTVKVTLTFEPVTVKDENGEEHEIDEVTITVTVTVLVKAEDSAGGSAGGSAGG [r11_907_TrROS_Hall] | 2.33 ± 0.35
SAGGSLFEKLNVKSVEVTEVKTYTLPPLPLTVEVPTVKVTLPDGTVIEFTVIKTYDPEDPTPTVTLGSAGGS [r8_422_JUSTAS] | 0.822 ± 0.027
SAGGSAGGSAGGSKKKPPKKITLVVWNEETGELTKVEFDAETKEVKVEKVPIKPGDILLSAGGSAGGSAGGS [r4_409_TrROS_Hall] | 1.18 ± 0.034
